Results taken from patent US6673332 (University of California, dated 2004).

B1: GST-TPR (GST fusion protein of the TPR domains of KLC1, amino acids 167-541) (other, UniProt O88447 167-541, looked up)
chain: KDSDSSKEPLDDLFPNDEDEPGQGIQHSDSSAAAARQGYEIPARLRTLHNLVIQYASQGRYEVAVPSCKQALEDLEKTSGHDHPDVATMLNILALVYRDQNKYKDAANLLNDALAIREKTLGRDHPAVAATLNNLAVLYGKRGKYKEAEPLCKRALEIREKVLGKDHPDVAKQLNNLALLCQNQGKYEEVEYYYQRALGIYQTKLGPDRTPNVAKTKNNLASCYLKQGKFKQAETLYKEILTRAHEAEFGSVDDENKPIWMHAEEREECKGKQKDGSAFGEYGGWYKACKVDSPTVTTTLKNLGALYRRQGKFEAAETLEEAAMRSRKQGLDNVHKQRVAEVLNDPESMEKRRSRESLNMDVVKYESGPDGGEEA
notes: range 167-541; The range is printed without a hyphen (167541); not shown: glutathione S-transferase
B2: GST-KLC2 (glutathione S-transferase fused to kinesin light chain 2, 591 amino acids of the largest cDNA clone) (other, UniProt O88448 9-599, looked up, not shown: a dimerising Fc or GST)
chain: EEKLSQDEIVLGTKAVIQGLETLRGEHRALLAPLASHEAGEAEPGSQERCLLLRRSLEAIELGLGEAQVILALSSHLGAVESEKQKLRAQVRRLVQENQWLREELAGTQQKLQRSEQAVAQLEEEKQHLLFMSQIRKLDEMLPQEEKGDVPKDSLDDLFPNEDEQSPAPSPGGGDVAAQHGGYEIPARLRTLHNLVIQYASQGRYEVAVPLCKQALEDLEKTSGHDHPDVATMLNILALVYRDQNKYKDAAHLLNDALAIREKTLGKDHPAVAATLNNLAVLYGKRGKYKEAEPLCKRALEIREKVLGKFHPDVAKQLSNLALLCQNQGKAEEVEYYYRRALEIYATRLGPDDPNVAKTKNNLASCYLKQGKYQDAETLYKEILTRAHEKEFGSVNGENKPIWMHAEEREESKDKRRDRRPMEYGSWYKACKVDSPTVNTTLRTLGALYRPEGKLEAAHTLEDCASRSRKQGLDPASQTKVVELLKDGSGRGHRRGSRDVAGPQSESDLEESGPAAEWSGDGSGSLRRSGSFGKLRDALRRSSEMLVRKLQGGGPQEPNSRMKRASSLNFLNKSVEEPVQPGGRVFLTAAL
notes: also called GST fused to full-length KLC2
B3: GST-KLC1 (glutathione S-transferase fused to kinesin light chain 1, all but the first seven amino acids) (other, UniProt O88447 8-541, looked up, not shown: a dimerising Fc or GST)
chain: MVYIKEEKLENVTQDEIISKTKQVIQGLEALKNEHNSILQSLLETLKCLKKDDESNLVEEKSSMIRKSLEMLELGLSEAQVMMALSNHLNAVESEKQNVRAQVRRLCQENQWLRDELANTQQKLQKSEQSVAQLEEEKKHLEFMNQLKKYDDDISPSEDKDSDSSKEPLDDLFPNDEDEPGQGIQHSDSSAAAARQGYEIPARLRTLHNLVIQYASQGRYEVAVPSCKQALEDLEKTSGHDHPDVATMLNILALVYRDQNKYKDAANLLNDALAIREKTLGRDHPAVAATLNNLAVLYGKRGKYKEAEPLCKRALEIREKVLGKDHPDVAKQLNNLALLCQNQGKYEEVEYYYQRALGIYQTKLGPDRTPNVAKTKNNLASCYLKQGKFKQAETLYKEILTRAHEAEFGSVDDENKPIWMHAEEREECKGKQKDGSAFGEYGGWYKACKVDSPTVTTTLKNLGALYRRQGKFEAAETLEEAAMRSRKQGLDNVHKQRVAEVLNDPESMEKRRSRESLNMDVVKYESGPDGGEEA
notes: range 8-end; also called GST fused to full-length KLC1
B4: KIF5B-His fusion protein (amino acids 499-783 of KIF5B, His-tagged, pET-23b) (other, UniProt Q61768 499-783, looked up)
chain: AVNYDQKSQEVEDKTKEYELLSDELNQKSATLASIDAELQKLKEMTNHQKKRAAEMMASLLKDLAEIGIAVGNNDVKQPEGTGMIDEEFTVARLYISKMKSEVKTMVKRCKQLESTQTESNKKMEENEKELAACQLRISQHEAKIKSLTEYLQNVEQKKRQLEESVDSLGEELVQLRAQEKVHEMEKEHLNKVQTANEVKQAVEQQIQSHRETHQKQISSLRDEVEAKEKLITDLQDQNQKMVLEQERLRVEHERLKATDQEKSRKLHELTVMQDRREQARQDLK
notes: range 499-783; also called C-terminal stalk of KIF5B; KIF5B construct; not shown: His tag of vector pET-23b
B5: synaptophysin, endogenous, mouse extracts (other, UniProt Q62277 1-314, looked up)
chain: MLLLADMDVVNQLVAGGQFRVVKEPLGFVKVLQWVFAIFAFATCGSYTGELRLSVECANKTESALNIEVEFEYPFRLHQVYFDAPSCVKGGTTKIFLVGDYSSSAEFFVTVAVFAFLYSMGALATYIFLQNKYRENNKGPMMDFLATAVFAFMWLVSSSAWAKGLSDVKMATDPENIIKEMPMCRQTGNTCKELRDPVTSGLNTSVVFGFLNLVLWVGNLWFVFKETGWAAPFMRAPPGAPEKQPAPGDAYGDAGYGQGPGGYGPQDSYGPQGGYQPDYGQPASGGGGGYGPQGDYGQQGYGQQGAPTSFSNQM
notes: also called SYP
B6: GST-CC (GST fusion protein of the N-terminal coiled coil domain of KLC, amino acids 30-200) (other, UniProt O88447 30-200, looked up)
chain: QVIQGLEALKNEHNSILQSLLETLKCLKKDDESNLVEEKSSMIRKSLEMLELGLSEAQVMMALSNHLNAVESEKQNVRAQVRRLCQENQWLRDELANTQQKLQKSEQSVAQLEEEKKHLEFMNQLKKYDDDISPSEDKDSDSSKEPLDDLFPNDEDEPGQGIQHSDSSAAA
notes: range 30-200; not shown: glutathione S-transferase

Tests used:
[1] = target: T1, GFP alone (UniProt P42212 1-238 = GFP, limits assumed); experiment: GST pull-down, Western blot for GFP
T1 construct: Control
Protocol: (§1) Briefly, purified GST, GST-KLC1 and GST-KLC2 bound to glutathione agarose beads were incubated with 10 μg of indicated purified fusion protein in 150 μl Buffer B (20 mM Tris-Cl, pH 7.5, 50 mM KCl, 100 mM NaCl, 2 mM CaCl_2, 2 mM MgCl_2, 5 mM DTT, 1% BSA, and protease inhibitors) for 1 hr at 4° C. For the antibody inhibition experiments, the antibody was pre-bound to the beads for 1 hr at 4° C. and then incubated for 1 hr with the indicated protein. The unbound protein (in 150 μl total volume) was saved, and the beads were washed three times with Buffer B. Bound proteins were eluted with 50 μl of elution buffer (50 mM glutathione, 50 mM Tris-Cl, pH 8.0). The bound (50 μl) and unbound (50 μl, i.e., one-third of total volume) proteins were then analyzed by SDS-PAGE followed by Western blotting.
(§2) To test directly if the C-terminus of APP interacts with the TPR domains of KLC, GST pull-down assays were conducted using GST fusion proteins of KLC1 that contained either the TPR domains (GST-TPR) or only the N-terminal coiled-coil region (GST-CC) (See, FIG. 5, Panel E). Purified APP-GFP protein bound to GST-TPR and not to GST-CC or to GST alone. In contrast, a KIF5B construct that contains part of a region previously found to bind to KLC (Diefenbach et al., [1998], supra; and Gauger and Goldstein, [1993], supra) bound to GST-CC, and not to GST-TPR.

[2] = target: T1, GFP alone; experiment: GST pull-down on glutathione agarose beads, Western blot for GFP
Protocol: as §1
To test for direct interactions between the cytoplasmic C-terminal domain of APP and KLC, in vitro binding assays using GST fusion proteins were conducted. The results are shown in FIG. 5, Panel A. GST fused to full-length KLC1 (GST-KLC1) or full-length KLC2 (GST-KLC2) was incubated with a protein consisting of the C-terminal tail of APP fused to GFP (APP-GFP). APP-GFP bound to both GST-KLC1 and GST-KLC2 but not to GST alone. […]

[3] = target: T1, GFP alone; experiment: GST pull-down on glutathione agarose beads, Western blot for GFP; also under five buffer conditions
Protocol: as §1
In addition, the binding of APP-GFP or GFP alone to either GST-KLC1 or GST using four other buffers than Buffer B, namely (1) Buffer B without Ca^2+, (2) Buffer B+500 mM NaCl+1% NP-40, (3) Buffer A from sucrose gradients (10 mM HEPES, pH 7.3, 0.5 mM EGTA, 0.5 mM EGTA, 0.5 mM MgCl_2, and (4) PBS (137 mM NaCl, 2.7 mM KCl, 4.3 mM Na_2HPO_4 7 H_2O, 1.4 mM KH_2PO_4) were tested.
To test for direct interactions between the cytoplasmic C-terminal domain of APP and KLC, in vitro binding assays using GST fusion proteins were conducted. […]

[4] = target: B1; experiment: GST pull-down, Western blot for the His tag
Protocol: as §1, §2

[5] = target: APP (amyloid precursor protein), endogenous, from mouse brain and sciatic nerve extracts (mouse, UniProt P12023 18-770, limits assumed); experiment: co-immunoprecipitation from mouse brain and sciatic nerve extracts, Western blot
Source text: Mouse brain (left side of panel; IP brain) or sciatic nerve (right side of panel; Supe) extracts were immunoprecipitated with a no antibody control (No Ab), the 63–90 antibody (which recognizes both KLC1 and KLC2; i.e., kinesin light chains 1 and 2), antibodies to KIF5B (ubiquitous KHC), or APP (C-terminal polyclonal antibody) or synaptotagmin (SYT). Panel B provides results showing the specificity of kinesin-I co-immunoprecipitation with APP. Co-immunoprecipitation of APP with KLC from wild-type (wt) and mutant (−/−) KLC1 brain extracts was done using 63–90 or antibodies specific to either KLC1 or KLC2, and then analyzed by Western blots using either 63–90 or APP (22C11) antibodies. Panel C provides results showing KLC1 dependence of KHC complexes with APP. Co-immunoprecipitation of APP with KHC from wild-type (wt) and mutant (−/−) KLC1 brain extracts were performed using antibodies to three different KHC subunits (KIF5A, KIF5B and KIF5C), and then analyzed by Western blots using either 63–90 or APP (22C11) antibodies, as shown in this Panel. […]
Sufficient quantities of either anti-KLC1 and anti-KLC2 (Rahman et al., [1998], supra), or anti-KIF5A and anti-KIF5B antibodies (Niclas et al., Neuron 12:1059–1072 [1994]) were added to the precleared lysate so as to completely immunoprecipitate the antigens in the lysate. […]

[6] = target: T2, APP-GFP fusion protein (C-terminal 42 amino acids of human APP fused to GFP, from a His-tagged pRSETb-EGFP … (human, UniProt P05067 729-770; P42212 1-238 = GFP); experiment: GST pull-down, Western blot for GFP
T2 construct: Expressed in bacteria, purified on Ni-NTA-agarose; also called C-terminal tail of APP fused to GFP; APP C-terminus; not shown: His tag and leader of the pRSETb vector
Protocol: as §1, §2

B1: no binding [1].

B2: no binding [2].

B3: no binding [3].

B4: no binding [4].

B5: no binding [5].

B6: no binding [1]; no binding [6].
